Source: patent US20180280504A1, “GLYCAN-INTERACTING COMPOUNDS AND METHODS OF USE” (SIAMAB THERAPEUTICS, INC., priority 2014, published 2018)

Tests used:
MDA-MD-231 STn+ cells = experiment: Fluorescence microscopy of ALEXA FLUOR 488-S3F binding and internalization, STn+ cells; assay type: cell-based, human
Description: To analyze the internalization of antibodies by fluorescence microscopy, the following procedure was carried out. MDA-MD-231 STn− cells and MDA-MD-231 STn+ cells were cultured in Eagles minimum essential medium containing 10% fetal calf serum, 100 μg/ml penicillin, 100 UI/ml streptomycin, 45 μg/ml gentamycin, as well as 1 mg/ml G418 for STn+ cells. Cells were sub-cultured by treatment with Accutase buffer and seeded in microscope chamber slides at 10,000 cells/chamber in the case of STn− cells and 20,000 cells/chamber in the case of STn+ cells. All cells were cultured overnight at 37° C. Cells were subsequently incubated with either 1.5, 5 or 10 μg/ml S3F conjugated with ALEXA FLUOR® 488 dye (Thermo Fisher Scientific, Pittsburgh, Pa.) in complete media at 4° C. for 1 hour. Cells were then washed with ice-cold PBS in order to remove antibodies that were not bound to the cell surface. Complete media was then administered to each chamber and the cells were incubated at 37° C. for either 0, 15, 30 or 60 minutes in order to allow internalization of any surface-bound antibodies.
Following each time point, cells were washed twice with PBS in order to remove unbound antibodies. […] Cells were visualized the following day by analysis on a Nikon Eclipse Ti fluorescence microscope.

[1] = COLO-205 xenograft model, percent body weight change; assay type: in vivo, mouse; details: 5 mg/kg i.p. once weekly
From the text: To evaluate antibody drug conjugates (ADCs) as single agents in an COLO-205 Colon AdenocarcinomaTumor Xonograft model, 40 athymic nude female mice age range 6-8 weeks were randomly separated into four separate groups, one vehicle control and three ADC treatments, then maintained individually with food/water ad libitum (see the following Table).
(§1) Animals were inoculated in the subcutaneous right flank with 5×10^6 colon adenocarcinoma tumor cells (COLO-205) in matrigel, mean tumor size was 175-225 mm^3 at study initiation. Animals were given either vehicle or one of the antibody drug conjugates (5 mg/kg) by intraperitoneal injection once weekly. Tumor volume and percent body weight change were determined once weekly until study termination. The study was terminated when the tumor in the vehicle control animal reached a mean tumor weight >1500 mm^3. SE refers to “standard error.”

[2] = system: COLO-205 Human Colon Adenocarcinoma Tumor Xenograft; experiment: COLO-205 xenograft model, clinical observations; assay type: in vivo, mouse; details: 5 mg/kg i.p. once weekly
Description: as §1
Clinical observations of tumor shape, size and disposition were noted throughout the study.

[3] = system: MDA-MB-231 parental cells (MDA-STn−); experiment: Flow cytometry-based analysis of antibody binding, parental cells; parameters: species or system human
Description: Flow cytometry-based analysis is carried out to elucidate the curve-dose response for binding of antibodies to cell surface antigens. For these analyses, three cell lines are employed.
MDA-MB-231 cells are human breast cancer cells. They are grown in Earle's Minimum Essential Medium supplemented with 10% fetal calf serum (FCS), 100 μg/ml penicillin, 100 UI/ml streptomycin and 45 μg/ml gentamycin. MCF-7 cells are also human breast cancer cells and are grown under the same conditions as MDA-MB-231 cells. Stably transfected versions of MDA-MB-231 and MCF-7 cells (clone TAH3.P10 for MDA-MB-231 cells and clone A12.1 for MCF-7 cells) that over express GalNAc α2,6-sialyltransferase (ST6GalNAc 1,) are also cultured under the same conditions with the exception of an added 1 mg/ml of G418 to support cells expressing the transgene. ST6GalNAc 1 is an enzme capable of sialylating GalNAc. […]
For analysis, cells are harvested using StemPro Accutase (Life Technologies, Carlsbad, Calif.) and washed with PBS comprising 5% FBS before pelleting by light centrifugation. Cell numbers and viability are determined by trypan blue dye exclusion analysis and cell concentrations are adjusted to 5×10^6 cells/ml in PBS with 5% FBS. […] Cells are combined with 50 μl solutions of antibody being analyzed or control antibodies and incubated for 1 hour at 4° C. […]

E3-STn tumors = experiment: E3-STn allograft model, second round study, tumor volume; assay type: in vivo, mouse; details: for Average Tumor Volume: 25 mg/kg i.p. twice weekly
From the text: Standard deviation values are listed in parenthesis.

B1: S3F: 3F1 variable domains combined with IgG2a constant domains; heavy chain SEQ ID NO: 63, light chain SEQ ID NO: 64 (antibody)
heavy: QVQLQQSDAELVKPGASVKISCKASGYTFTDHAIHWVKQKPEQGLDWIGYISPGNGDIKYNEKFKDKVTLTADKSSSTACMHLNSLTSEDSAVYFCKRSLLALDYWGQGTTLTVSSAKTTAPSVYPLAPVCGDTTGSSVTLGCLVKGYFPEPVTLTWNSGSLSSGVHTFPAVLQSDLYTLSSSVTVTSSTWPSQSITCNVAHPASSTKVDKKIEPRGPTIKPCPPCKCPAPNLLGGPSVFIFPPKIKDVLMISLSPIVTCVVVDVSEDDPDVQISWFVNNVEVHTAQTQTHREDYNSTLRVVSALPIQHQDWMSGKEFKCKVNNKDLPAPIERTISKPKGSVRAPQVYVLPPPEEEMTKKQVTLTCMVTDFMPEDIYVEWTNNGKTELNYKNTEPVLDSDGSYFMYSKLRVEKKNWVERNSYSCSVVHEGLHNHHTTKSFSRTPGK
light: DIVMTQSHKFMSTSVGDRVSITCKASQDVGTNIAWYQQKPGRSPKVLIYSASTRHTGVPDRFTGSGSGTDFTLTISNVQSEDLTDYFCQQYSSFPLTFGVGTKLELKRADAAPTVSIFPPSSEQLTSGGASVVCFLNNFYPKDINVKWKIDGSERQNGVLNSWTDQDSKDSTYSMSSTLTLTKDEYERHNSYTCEATHKTSTSPIVKSFNRNEC
internalization by STn+ cells (MDA-MD-231 STn+ cells; 37° C. 15-60 min, acid wash): capable of being internalized by STn+ cells | binding to the surface of STn+ cells (MDA-MD-231 STn+ cells; 488-S3F conjugate at 1.5, 5, 10 μg/ml, 4° C.): binds the surface of STn+ cells | body weight course after initial drop [1]: remained low | Percent Body Weight Change ([1]; study day 1): 0% | Percent Body Weight Change ([1]; study day 5): 1.18% | Percent Body Weight Change ([1]; study day 8): −5.01% | Percent Body Weight Change ([1]; study day 10): −2.53% | Percent Body Weight Change ([1]; study day 15): −5.22% | Percent Body Weight Change ([1]; study day 19): −1.33% | Percent Body Weight Change ([1]; study day 22): −0.91% | clinical observations of tumors and signs of illness [2]: necrosing tumors ranging in severity from slight to severe

B2: 8C11: anti-STn mouse monoclonal, IgG2b κ, from mouse #4407; VH SEQ ID NO: 8, VL SEQ ID NO: 9 (antibody, V domains shown)
VH: QVQLKESGPGLVAPSQSLSITCTVSGFSLTSYGVSWVRQPPGKGLEWLGVIWGDGSTNYHSALISRLIISKDNSKSQVFLKLNSLQTDDTATYYCTKGFTYWGQGTLVTVSA
VL: QIVLTQSPAIMSASPGEKVTMTCSASSSVSYMHWYQQKSGTSPKRWIFDTSKLASGVPARFSGSGSGTSYSLTISSMEAEDAATYYCQQWSSNLLTFGAGTKLELK
binding to MDA parental cells lacking STn [3]: No binding

B3: 7G9: anti-STn mouse monoclonal, IgG2b κ, from mouse #4407; VH SEQ ID NO: 12, VL SEQ ID NO: 9 (antibody, V domains shown)
VH: QVQLKESGPGLVAPSQNLSITCTVSGFSLTSYGVNWVRQPPGKGLEWLGVIWGDGSTNYHSALISRLIISKENSKSQVFLKLNSLQTNDTATYYCTKGFVYWGQGTLVTVSA
VL: QIVLTQSPAIMSASPGEKVTMTCSASSSVSYMHWYQQKSGTSPKRWIFDTSKLASGVPARFSGSGSGTSYSLTISSMEAEDAATYYCQQWSSNLLTFGAGTKLELK
Average Tumor Volume (E3-STn tumors; day 1 of treatment): 125.9 mm^3 | Average Tumor Volume (E3-STn tumors; day 5 of treatment): 135.2 mm^3 | Average Tumor Volume (E3-STn tumors; day 8 of treatment): 144.5 mm^3 | Average Tumor Volume (E3-STn tumors; day 12 of treatment): 157.2 mm^3 | Average Tumor Volume (E3-STn tumors; day 15 of treatment): 169.2 mm^3 | Average Tumor Volume (E3-STn tumors; day 19 of treatment): 178.0 mm^3 | Average Tumor Volume (E3-STn tumors; day 22 of treatment): 186.4 mm^3 | Average Tumor Volume (E3-STn tumors; day 26 of treatment): 195.9 mm^3 | Average Tumor Volume (E3-STn tumors; day 29 of treatment): 199.4 mm^3 | Average Tumor Volume (E3-STn tumors; day 33 of treatment): 201.5 mm^3 | Average Tumor Volume (E3-STn tumors; day 36 of treatment): 206.5 mm^3 | Average Tumor Volume (E3-STn tumors; day 40 of treatment): 212.9 mm^3 | Average Tumor Volume (E3-STn tumors; day 43 of treatment): 243.7 mm^3 | Average Tumor Volume (E3-STn tumors; day 47 of treatment): 277.5 mm^3 | Average Tumor Volume (E3-STn tumors; day 50 of treatment): 313.4 mm^3 | average tumor volumes as compared to vehicle control (E3-STn tumors; second round study, 25 mg/kg i.p. twice weekly for 7 weeks): greatly reduced
